The numbers were not newly measured in PMC2818086, which cites them from elsewhere.

The test system of this series is His64. Description: kinetics. Conditions: 25 °C; free enzyme in solution during catalysis (zinc-loaded).

What is called pKa is the negative logarithm of the acid dissociation constant. On to “Carbonic anhydrase II (HCA II) N62T (Homo sapiens; N62T)”, for which the pKa is recorded as 7.0. On to “Carbonic anhydrase II (HCA II) Y7F (Homo sapiens; Y7F)”, for which the pKa is recorded as 6.0. As to “Carbonic anhydrase II (HCA II) N62A (Homo sapiens; N62A)”, the pKa was 6.2. For “Carbonic anhydrase II (HCA II) N62L (Homo sapiens; N62L)”, the pKa is on record as 6.0.

In the case of “Carbonic anhydrase II (HCA II), wild type (Homo sapiens)”, the pKa is listed as 7.2. For “Carbonic anhydrase II (HCA II) N62V (Homo sapiens; N62V)”, the pKa is listed as 5.9. “Carbonic anhydrase II (HCA II) N62D (Homo sapiens; N62D)”: the pKa was 8.4. In the case of “Carbonic anhydrase II (HCA II) N67L (Homo sapiens; N67L)”, the pKa is 7.5.
